# Test results: the nanobody polyreactivity screen of Harvey et al. (2022)
# Test: yeast display, Sf9 membrane polyspecificity reagent, FACS + sequencing; frameworks hold sequencing errors
# In short: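 Synthetic nanobody libraries on Saccharomyces cerevisiae BJ5465 were galactose-induced for 36–48 hours, stained 1 hour at 4 °C with 10% biotinylated, detergent-solubilized Sf9 membrane reagent and enriched on streptavidin microbeads. FACS then separated cells into low and high (top ~1%) gates by anti-HA (expression) and streptavidin (reagent binding) fluorescence. Genes were colony-PCR amplified, MiSeq 2 × 250 sequenced and CDR-length filtered. A clone's polyreactivity label is that of its gate of origin.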
row,Sequence,polyreactivity (PSR sort gate)
1,QVQLVESGGGLVQAGGSLRLICAASGSTFGFNAMGWYRQAPGKERELVAAITFSGGTTYYADSVKGRFTISRDNAKNTVYVQMNSLKPDDTAVYYCNAEWWYHYTGPFAPWGEDYWGQGTQVTVSS,low polyreactivity
2,QVQLVESGGGLVQAGGSLRLSCAASGSTFVYYAMGWYRQAPGKERELVAAISTSAGSTYYADSVKGRFTISRDNAKNTVYLQMNSLKPEDTAVYYCAASRKRRRYGSISGGYWGQGTQVTVSS,high polyreactivity
3,QGQLVESGRGLVQAGGSLSLSCAASGSTFFIYAMGWYRQAPGKERELVAAINRSGGRTYYADSVKGRFTISRYTAQNTVYLQMNSLKPEDTAVYYCAAYLGPYVRFYYWGQGTQGTVSS,high polyreactivity
4,QVQLVESGGGLVQAGGSLRLSCAASGSTFDGNAMGWNRQAPGKERELVAAITRAGRTSYADSVKGRFTISRDNAKNTVYLQMNCLKPEDTAVFYCAKGGYDYWGQGTQVTVSS,low polyreactivity
5,QVQLVESGGGIVQAGGSLRLSCAASGRIFPYNAMGWYIQAPGKERELVAAIRWSGGNTYYADSVKGRFTISRDNAKNTVYLQMNSLKPEDNAVYYCAKYRRSFGFDYWGQGTQVTVSS,high polyreactivity
6,QVQLVESGGGLVQAGGSLRLSCAASGRTVDWYAMGWYRQAPGTDRELVAVISSSGGRTYYADSVKGRFTISRDNAKNTVYLQMNRLKPEDTAVYYCATQNGSKRYSYYYWGQGTQVTVSS,high polyreactivity
7,QVQLVESGGGLVQAGRSLRLSCAASGITFESYAMGWYRQAPGKEREFVAAISRSSGSTYYADSVKGRFTISRDNAKNTVYLQMNSLKPEDTAVYYCATRSFRDDGFGRYYYWGQGTLVTVSS,high polyreactivity
8,QVQLVESGGGLVQAGGSLRLSCAASGSTFYNYAMGWYRQAPGKEREFVAAITRSGGSTYYADSVKGRFSISRDNAKNTVYLQMNSLKPEDTAVYYCNAGGHWYYHRYRGYYWGQGTQVTVSS,high polyreactivity
9,QVQLVESGGGLVQAGGSLRLSCAASGSIFWLYAMGWYRQAPGKERELVAAISWSGTSTNYADSVKGRFTISRDNAKNTVYLQMNSLKPEDTAVYYCAAKWHVRGRGARYRYDYDYWGQGTQVTVSS,low polyreactivity
10,QVKLVESGGGLVQAGGSLRLSCAASGFIFSNNAMGWYRQAPGKEMELVAAITWNGGRTYYADSVKGRFTISRDNAKNTVYLQMNSLKQVDTAVYYCAAGRYYPLFYYWGLGTQVTVSS,high polyreactivity
11,QVQLVESGGGLVQAGGSLRLSCAASGRIFTRNAMGWYRPAPGKERELVAAISSRGGSTYYADSVKGRFTISRDNAKNTVYLQMNSLKPEDTAVYYCAAGYWATYDYWGQGTQVTVSS,high polyreactivity
12,QVQLVESGGGLVQAGGSLRLSCAASGRTFEYYAMGWYRQAPGKERELVAAITSGGITYYADSVKGRFTISRDNAKYTVYLQMNSLKPEDTAVYYCNARHRYYRYGYWGQGTQVTVSS,high polyreactivity
13,QVQLVESWGGLVQAGGSLRLSSAASGFTFVTYGMGWYRQAPGKERELVARISSSSTNYADSVKGRFTISRDNAKNTVYLQMKSLKPEDTAVYYCAAVHYRWWYRSAYDYWGQGTQVTVSS,low polyreactivity
14,QVQLVESGGGLVQAGGSLRLSCAASGRIFVNNAMGWYRPAPGKERELVAAISKRGGSTYYADSLKGRFTISRDNAMNTVYLHMNSLKPEDTAVYYCAASGYRYPIDGDYWGQGTEVTVSS,high polyreactivity
15,QVQLVESGGGLVQAGGSLRLSCAASGGIFGGYAMGWYRQAPRKERELVATITSGTSTNYADSVKGRFTISRDNAKNTVYLQMNSLKPEDTAVYYCNAGGVYPRFTFLEQGYEMEYWGQGTQVTVSS,low polyreactivity
16,QVQLVESGGGLVQAGGSLRLSCAASGSIFERYAMGWYRQAPGKERELVAGISTDGSTYADSVKGRFTISRDNAKNTVYLQMNSLKPEDTAVYYCNKRRGFSAWYDYWGQGTQVTVSS,low polyreactivity
17,QVQLVESGGGLVQAGGSLRLSCAASGFIFDYNAMGWYRQAPGKERELVDAISGGGGSTYYADSVKGRFTISRDNAKNTVFLLMNSLKPEDTSVYDCAKRYRGGYWGQGSQVTVSS,high polyreactivity
18,QVQLVESGGGLVKAGGSLRLRCAASGITFRYNAMGWYRQAPGKERELVAAITSSGGRTYYADSVKGRFTISRDNAKNTVYLQMNSLKPEDTAVYYCAARTRYRKEYDYWGQGTQVTVSS,high polyreactivity
19,QVQLVESGGGLVQAGGSLRLSCAASGSIFEIYAMGWYRQAPGKERQLVASITWSGGSTYYADSVKGRFTISRDNAKNTVYLQMNSLKPEDTAVYYCATDKLYGRTVRMDYWGQGTQVTVSS,low polyreactivity
20,QVQLVESAGGLVQAGGSLRLSSAASGRIFLYYAMGWYRQAPGKEREFVAAITYIGGSTYYADSVKGRFTISRDNAKNTVYLQMNSLKPEDTAVYWGEGTQVTVSS,low polyreactivity
21,QVQLVESGGGLVQAGGSLRLSCAASGSIFRPYAMGWYRQAPGKEREFVASISWRGGSTYADSVKGRFTISRDNAKNTVYLQMNSLKPEDTAVYYCAAKFWRYRYYEYDYWGQGTQVTVSS,high polyreactivity
22,QVQLVESGGGLVQAGGRLRISCAASGSIFGTYTMGWYRLAPGEERELVAAITSDGRTYYADSVKGRFTISRDNAKNTVYLQMNSLKPEDTAVYYCAADSSGYYWFNYWGQGTQVTVSS,low polyreactivity

row,Sequence,polyreactivity (PSR sort gate)
1,QVQLVESGGGLVQAGGSLRLSCAASGFTFTRYAMGWYRQAPGKERELVASISTSGGRTYYADSVKGRFTISRDNAKNTVYLQMNSLKPEDTAVYYCAASWNTQSRGWQYDYWGQGTQVTVSS,low polyreactivity
2,QVQLVESGGGLVQAGGSLRLSCAASGSIFKGNAMGCYRQAPWKESEMVAAISGGGGSTYYADSVKGRFTISRDNAKNTVYLQMYSLKPEDTAVYYCAARYYESPGDRSGFRYGYWGQGTQVTVSS,high polyreactivity
3,QVQLVESGGGLVQAGGSLRLSCAASGLIFWQYAMGCYRQAPGKERELVAAISIGGSTNYADSVKGRFTISRDNAKNTVYFQMNSLKPEDTAVYYCNAAFLRQVWAGYNYWGQGTQVTVSS,high polyreactivity
4,QVQLVESGGGLVQAGGSLRLSCAASGSTFRFNAMGWYRQAPGKEREFVAAIRFTGGSTYYADSVKGRFTISRDNAKNTVYLQMNSLKPEDSAVYYCNNADEYSTVEYDYWGQGTQVTVSS,low polyreactivity
5,QVQLVESGGGLVQAGGSLRLSCAASGLIFNIYAMGWYRQAPGKERELVAAISKSGGSTYYADSVKGRFTISRDNAKNTVYLQMNSLKPEDTAVYYCAVRSMRVDKYGYWGQGTQVTVSS,high polyreactivity
6,QGQLVESGGGLVQAGGSLRVSCAASGYTFDSYAMGLYRQAPGKERELFAAITNGGSTYYADSVKGRFTISRDNAKKTVYLQLNSLKPEDTAVYYCATDDDQLDYLYDYWGPGTQVTVSS,low polyreactivity
7,QVQLVESGGGLVQAGGSLRLSCAASGFIFRPYAMGSYRQAPGKERELVAAISYGDGITYYADSVKGRFTISRDNAKNTVYLQMNSLKPEDTAVYYCAAEYVSHFSGYRYDYWGQGTQVTVSS,low polyreactivity
8,QVQLEESGGGLVQAGGSLRLSCAASGSIIYENTMGWYRQAPGKERELVAAISASGGSTEYADSVKGRFTISRDNEKNTVYLQMKSLKPEDTGVYYCAADACAFYFGGDYWGLGTQVTVSS,low polyreactivity
9,QVQLVESGGGLVQAGGSLRLSCAASGRIFDVYAMGWYRQAPGKERELVAAITGSGGSTYYADSVKGRFTISRDNAKNTVYLQMNSLKPEDTAVYYCNAVGIWFPIRLIVPYDYWGQGTQVTVSS,low polyreactivity
10,QVQLVESVGGLVQAGGSLRLSCAASGSIFYQYAMGWYRQAPGKERELVAAISRSGGSTYYADSVKGRFTISRDIAKNTVYLQMNSLKPEDTAVYYCAADQKSLRMYYWGQGTQVTVSS,high polyreactivity
11,QVQLVESGGGLVQAGGSLRLSCAASGSTFRRNTMGWYTQAPGKERELVAGISSSGGSTYYADSVKGRFTISRDNAKNTVYLQMNSLNPEDTAVYYCDARFYVSYVGYNYWGHGTQVTVSS,high polyreactivity
12,QVQLVESGGGLVQAGGSHRLSCAASGFIFPYYTMGRYRQAPEKERELVAANRYSAGRTYYADSVKGRFTISRDIAKNTVYLQLNSLKPVDTAVYYCNAVSSGDMDYWGQGTQVTVSS,high polyreactivity
13,QVQLVESGGGLVQAGGSLRLSCAASGSTFHLYAMGWYRQAPGKEREFVAAIRGRGGNTYADSVKGRFTISRDNAKNTVYLQMHSLKPEDTAVYYCAAPLLRDLRSPYSYNYWGQGTQVTVSS,low polyreactivity
14,QVQLVESGGGLVQAGGSLRLSCAASGSIFDSYDRGWYREAPGKERELVAAITSGGSTNYADSVKGRFTISRDNAKNTVYLQMNSLKPEDTAVYYCAAYYWYPVYYGYDYGGQGTQVTVSS,low polyreactivity
15,QVQLVESGGGLVQAGGSLRLSCAASGYTFTIYAMGWYRKAPGKERELVAAITGRGGRTNYADSVKGRFTISRDNAKNTVYLQMNSLKPEDTAVYYCNAVTKVVYHGPYGYDYWGQGTQVTVSS,high polyreactivity
16,QVQLVESGGGLVQAGGSLRLSCAASGSIFRWNAMGWYRQAPGKEREFVAAISGRGGSTYYADSVKGRFTISRDNAKNTVYLQMNSLKPEDTAVYYCAADQAHLATRGFDYWGQGTQVTVSS,high polyreactivity
17,QVQLVESGGGLVQAGGSLRLSCAASGSIITPNAMGWYRQAPGQERELVAAISSGGSTNYADSVKGRITISRDNAKNTVYFQLTCLKPEDTAVYYCAKSIDGWYWRRRRYDYWGQGTQVTVSS,low polyreactivity
18,QVQLVESGGGLVQAGGSLRLSCAASGRIFRYYAMGWYRQAPGKERELVAAITRGGSTNYADSVKGRFTISRDNAKNTVYLLMNSLKPEVTAVDYCNAPYWKSRFRAYYHWGQGTQVTVSS,high polyreactivity
19,QGQLVESGGGLVQAGGSLRLSCAASGSIFGGYGMGWYRQAPGKERELVAAITSGSSTYYADSVKGRFTISRDNAKNTVYLQMNSLKPEDTAVYYCAARPYPHSAYEGDYWGRGTQVTVSS,low polyreactivity
20,QVQLVESGGGLVQAGGSLRLICAASGFTFYRYAMGWYRQAPGKERELVASITRSGGSTSYADSVKGRFTISRDNAKNSVYLQMNRLKPEDTAVFYCAAVTTQYLFSVPYYYWGQGTQVTVSS,high polyreactivity
21,QVQLVESGGGLVQAGGSLRLSCAASGRIFGVYAMGLYRQAPGKERELVAGITYSGGSTYYADSVKGRFTISRDNAKNTVYLQMNSLKPEDTAVYYCARYHWYYRVSKSDSWGQGTQVTVSS,high polyreactivity
